Patent US20190100563A1 (UNIVERSITY COURT OF THE UNIVERSITY OF EDINBURGH, published 2019)
“And” between values parts separate entries of the source, which are not always exact repeats. Equal entries are not always repeated.

Legend:
[1] = molecular target: T1, Human complement factor H purified from plasma (human, UniProt P08603 19-1231); assay: cell-based or functional assay
[2] = molecular target: T2, Recombinant human CFH, wild-type sequence, from Pichia pastoris (human, UniProt P08603 19-1231); assay: cell-based or functional assay
[3] = molecular target: Human C3b (plasma-purified) (human, UniProt P01024 23-667; P01024 749-1663); assay: SPR, amine-coupled C3 fragments on C1 chip
[4] = molecular target: Human C3c (plasma-purified) (human, UniProt P01024 23-667; P01024 749-954; P01024 1321-1663); assay: SPR, amine-coupled C3 fragments on C1 chip
[5] = molecular target: T3, Human C3d (plasma-purified) (human, UniProt P01024 1002-1303); assay: SPR, amine-coupled C3 fragments on C1 chip
T3 construct: domain: TED; also called TED of C3b

[6] = molecular target: T4, CFH 6-8 (recombinant construct corresponding to CFH CCPs 6-8) (human, UniProt P08603 321-509); assay: SPR, sPspCN on NTA/Ni2+ chip
T4 sequence: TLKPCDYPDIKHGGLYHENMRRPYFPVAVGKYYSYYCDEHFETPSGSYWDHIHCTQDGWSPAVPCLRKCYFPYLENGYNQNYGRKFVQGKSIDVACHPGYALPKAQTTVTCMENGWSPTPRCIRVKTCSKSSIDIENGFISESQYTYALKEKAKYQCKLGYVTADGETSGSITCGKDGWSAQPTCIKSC

[7] = molecular target: T5, CFH 8-15 (recombinant fragment, CCPs 8-15 of human CFH) (human, UniProt P08603 446-928); assay: SPR, sPspCN on NTA/Ni2+ chip
T5 construct: also called CF8-15
T5 sequence: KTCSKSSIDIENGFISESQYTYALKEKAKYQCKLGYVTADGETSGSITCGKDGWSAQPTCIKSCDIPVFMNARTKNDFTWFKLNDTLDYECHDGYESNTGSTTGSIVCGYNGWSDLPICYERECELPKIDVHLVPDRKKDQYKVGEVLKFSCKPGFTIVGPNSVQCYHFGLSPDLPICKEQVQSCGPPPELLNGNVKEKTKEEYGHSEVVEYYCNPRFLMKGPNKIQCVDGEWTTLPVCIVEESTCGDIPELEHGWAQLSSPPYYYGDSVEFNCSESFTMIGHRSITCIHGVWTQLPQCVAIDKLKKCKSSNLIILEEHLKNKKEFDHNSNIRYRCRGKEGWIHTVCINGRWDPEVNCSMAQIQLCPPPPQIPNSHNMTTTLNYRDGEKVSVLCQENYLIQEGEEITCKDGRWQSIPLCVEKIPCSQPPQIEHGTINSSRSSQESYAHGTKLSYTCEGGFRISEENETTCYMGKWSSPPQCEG

[8] = molecular target: T6, CFH 10-11 (recombinant fragment, CCPs 10-11 of human CFH) (human, UniProt P08603 567-686); assay: SPR, sPspCN on NTA/Ni2+ chip
T6 sequence: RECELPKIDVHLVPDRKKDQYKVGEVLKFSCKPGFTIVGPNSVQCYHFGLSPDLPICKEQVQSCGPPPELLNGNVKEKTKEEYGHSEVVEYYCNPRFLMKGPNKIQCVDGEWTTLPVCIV

[9] = molecular target: T7, CFH 10-15 (recombinant fragment, CCPs 10-15 of human CFH) (human, UniProt P08603 567-928); assay: SPR, immobilised sPspCN
T7 sequence: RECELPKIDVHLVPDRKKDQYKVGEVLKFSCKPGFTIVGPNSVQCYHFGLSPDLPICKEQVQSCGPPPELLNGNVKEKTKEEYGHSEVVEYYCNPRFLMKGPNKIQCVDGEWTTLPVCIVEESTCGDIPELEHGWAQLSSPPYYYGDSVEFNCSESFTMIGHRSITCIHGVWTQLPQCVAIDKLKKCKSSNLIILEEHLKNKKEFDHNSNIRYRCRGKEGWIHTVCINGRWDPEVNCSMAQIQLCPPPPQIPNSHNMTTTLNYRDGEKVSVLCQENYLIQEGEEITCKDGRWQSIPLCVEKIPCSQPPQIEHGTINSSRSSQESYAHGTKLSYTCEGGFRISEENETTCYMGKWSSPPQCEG

[10] = molecular target: T1, Human complement factor H purified from …; assay: not stated there (SPR in the examples)
[11] = molecular target: T1, Human complement factor H purified from …; assay: SPR, sPspCN on NTA/Ni2+ chip, CFH as analyte, 1:1 kinetic fit
[12] = molecular target: T2, Recombinant human CFH, wild-type …; assay: SPR, sPspCN on NTA/Ni2+ chip, rCFH as analyte, 1:1 kinetic fit
[13] = molecular target: T5, CFH 8-15 (recombinant fragment, CCPs …); assay: SPR, sPspCN on NTA/Ni2+ chip, CFH 8-15 as analyte, 1:1 kinetic fit
[14] = molecular target: T8, Recombinant human CFH (D1119G) from Pichia pastoris (human, UniProt P08603 19-1231); assay: SPR, sPspCN on NTA/Ni2+ chip, rCFH-D1119G as analyte, 1:1 kinetic fit
T8 construct: also called rCFH-D1119G; rCFH (D1119G)

[15] = molecular target: T9, CFH 8-9 (recombinant fragment, CCPs 8-9 of human CFH) (human, UniProt P08603 446-566); assay: SPR, sPspCN on NTA/Ni2+ chip, CFH 8-9 concentration series, equilibrium method
T9 sequence: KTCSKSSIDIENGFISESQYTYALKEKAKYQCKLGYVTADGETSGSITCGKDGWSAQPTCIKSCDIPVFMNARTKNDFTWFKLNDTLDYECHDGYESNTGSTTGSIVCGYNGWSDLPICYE

T1 sequence (P08603 19-1231 limits assumed): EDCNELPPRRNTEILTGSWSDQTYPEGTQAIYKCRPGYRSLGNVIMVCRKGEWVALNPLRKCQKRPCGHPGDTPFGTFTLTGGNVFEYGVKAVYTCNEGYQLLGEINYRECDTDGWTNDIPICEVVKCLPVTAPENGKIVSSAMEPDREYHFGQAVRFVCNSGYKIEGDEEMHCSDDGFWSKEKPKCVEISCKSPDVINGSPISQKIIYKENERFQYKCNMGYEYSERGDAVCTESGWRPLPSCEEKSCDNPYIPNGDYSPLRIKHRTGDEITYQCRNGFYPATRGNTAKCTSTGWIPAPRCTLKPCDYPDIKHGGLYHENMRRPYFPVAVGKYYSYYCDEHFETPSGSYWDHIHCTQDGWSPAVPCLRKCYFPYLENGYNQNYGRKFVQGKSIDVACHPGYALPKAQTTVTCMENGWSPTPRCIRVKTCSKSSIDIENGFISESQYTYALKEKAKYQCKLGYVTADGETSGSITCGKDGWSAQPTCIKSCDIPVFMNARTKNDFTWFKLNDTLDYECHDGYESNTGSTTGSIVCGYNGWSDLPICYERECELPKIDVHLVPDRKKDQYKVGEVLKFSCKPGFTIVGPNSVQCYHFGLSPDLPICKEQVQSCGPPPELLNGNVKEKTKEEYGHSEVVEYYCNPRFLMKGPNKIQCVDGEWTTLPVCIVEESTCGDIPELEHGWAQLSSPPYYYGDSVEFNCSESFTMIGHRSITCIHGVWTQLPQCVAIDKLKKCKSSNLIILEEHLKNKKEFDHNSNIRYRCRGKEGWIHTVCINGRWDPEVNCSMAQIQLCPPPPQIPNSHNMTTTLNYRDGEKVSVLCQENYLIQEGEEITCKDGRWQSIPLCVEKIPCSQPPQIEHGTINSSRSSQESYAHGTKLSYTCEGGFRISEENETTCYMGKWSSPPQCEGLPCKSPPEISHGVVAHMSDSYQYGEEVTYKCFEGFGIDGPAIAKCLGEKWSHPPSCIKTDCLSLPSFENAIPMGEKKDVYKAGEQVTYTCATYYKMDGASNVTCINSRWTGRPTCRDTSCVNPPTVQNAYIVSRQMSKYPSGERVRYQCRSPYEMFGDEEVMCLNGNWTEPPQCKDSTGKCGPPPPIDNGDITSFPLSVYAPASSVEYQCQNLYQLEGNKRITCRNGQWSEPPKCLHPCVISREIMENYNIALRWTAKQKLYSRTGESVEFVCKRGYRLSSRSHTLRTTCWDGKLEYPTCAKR
T2 sequence (P08603 19-1231 limits assumed): as above
T8 sequence (P08603 19-1231 D1119G limits assumed): as the sequence (P08603 19-1231 limits assumed) above, with D1101G counted along it
Sequence of Human C3c (plasma-purified) (P01024 23-667, chain 1 of 3): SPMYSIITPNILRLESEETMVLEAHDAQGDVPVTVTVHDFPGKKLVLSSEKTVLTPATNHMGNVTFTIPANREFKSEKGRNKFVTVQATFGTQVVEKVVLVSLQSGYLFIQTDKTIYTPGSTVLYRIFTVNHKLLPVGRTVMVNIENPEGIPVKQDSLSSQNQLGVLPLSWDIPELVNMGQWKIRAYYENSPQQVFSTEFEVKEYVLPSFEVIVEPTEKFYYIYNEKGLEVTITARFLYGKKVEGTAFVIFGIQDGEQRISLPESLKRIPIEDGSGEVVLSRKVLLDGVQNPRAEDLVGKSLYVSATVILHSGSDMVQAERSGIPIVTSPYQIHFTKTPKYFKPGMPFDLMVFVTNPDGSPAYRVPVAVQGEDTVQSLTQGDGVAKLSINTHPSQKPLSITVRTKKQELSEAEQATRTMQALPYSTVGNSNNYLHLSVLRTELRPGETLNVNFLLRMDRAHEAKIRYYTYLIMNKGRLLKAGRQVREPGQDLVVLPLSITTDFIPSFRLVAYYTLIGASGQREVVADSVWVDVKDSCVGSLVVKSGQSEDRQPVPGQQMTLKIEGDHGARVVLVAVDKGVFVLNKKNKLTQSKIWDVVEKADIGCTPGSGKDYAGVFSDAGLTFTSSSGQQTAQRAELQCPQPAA
Sequence of Human C3c (plasma-purified) (P01024 749-954, chain 2 of 3): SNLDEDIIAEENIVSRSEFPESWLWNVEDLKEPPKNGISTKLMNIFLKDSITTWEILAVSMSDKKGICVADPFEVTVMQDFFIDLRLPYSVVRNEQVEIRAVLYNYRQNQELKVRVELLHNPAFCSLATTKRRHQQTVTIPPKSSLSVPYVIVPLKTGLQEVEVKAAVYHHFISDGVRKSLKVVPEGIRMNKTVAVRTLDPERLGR
Sequence of Human C3c (plasma-purified) (P01024 1321-1663, chain 3 of 3): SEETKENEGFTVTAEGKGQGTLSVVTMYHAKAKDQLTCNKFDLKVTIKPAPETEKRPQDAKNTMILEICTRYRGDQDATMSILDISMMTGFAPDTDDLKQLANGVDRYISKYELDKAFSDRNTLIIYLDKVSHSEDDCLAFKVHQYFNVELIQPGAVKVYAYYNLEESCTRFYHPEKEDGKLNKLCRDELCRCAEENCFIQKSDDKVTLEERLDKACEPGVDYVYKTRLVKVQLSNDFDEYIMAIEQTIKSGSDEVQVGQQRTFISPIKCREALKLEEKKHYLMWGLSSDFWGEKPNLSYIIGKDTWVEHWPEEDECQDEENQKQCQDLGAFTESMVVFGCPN
Sequence of Human C3b (plasma-purified) (P01024 23-667 limits assumed, chain 1 of 2): as the sequence (P01024 23-667, chain 1 of 3) above
Sequence of Human C3b (plasma-purified) (P01024 749-1663 limits assumed, chain 2 of 2): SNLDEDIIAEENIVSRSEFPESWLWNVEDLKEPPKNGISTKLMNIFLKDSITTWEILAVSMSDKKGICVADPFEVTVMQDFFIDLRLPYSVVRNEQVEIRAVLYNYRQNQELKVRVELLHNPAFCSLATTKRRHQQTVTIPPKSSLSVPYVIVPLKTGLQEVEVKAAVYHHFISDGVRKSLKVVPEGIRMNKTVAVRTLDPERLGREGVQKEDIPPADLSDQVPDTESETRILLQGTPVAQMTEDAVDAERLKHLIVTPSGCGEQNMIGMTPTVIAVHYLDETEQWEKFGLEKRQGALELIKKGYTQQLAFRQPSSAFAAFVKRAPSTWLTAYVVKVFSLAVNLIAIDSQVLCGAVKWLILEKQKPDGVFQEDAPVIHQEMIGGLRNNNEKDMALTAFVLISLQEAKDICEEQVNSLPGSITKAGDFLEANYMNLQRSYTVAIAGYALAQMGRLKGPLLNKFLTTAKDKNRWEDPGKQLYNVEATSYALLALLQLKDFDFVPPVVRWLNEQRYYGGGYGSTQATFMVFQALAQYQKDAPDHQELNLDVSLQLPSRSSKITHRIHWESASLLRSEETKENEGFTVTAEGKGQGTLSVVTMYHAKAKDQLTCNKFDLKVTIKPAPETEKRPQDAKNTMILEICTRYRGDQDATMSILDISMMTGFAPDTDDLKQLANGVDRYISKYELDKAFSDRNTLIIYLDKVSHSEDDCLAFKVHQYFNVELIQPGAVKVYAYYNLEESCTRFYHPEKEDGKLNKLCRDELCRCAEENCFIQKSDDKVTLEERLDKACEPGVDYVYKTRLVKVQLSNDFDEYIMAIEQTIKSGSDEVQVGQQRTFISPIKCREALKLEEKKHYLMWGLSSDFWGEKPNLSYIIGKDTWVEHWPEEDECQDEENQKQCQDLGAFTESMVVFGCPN
T3 sequence (P01024 1002-1303 limits assumed): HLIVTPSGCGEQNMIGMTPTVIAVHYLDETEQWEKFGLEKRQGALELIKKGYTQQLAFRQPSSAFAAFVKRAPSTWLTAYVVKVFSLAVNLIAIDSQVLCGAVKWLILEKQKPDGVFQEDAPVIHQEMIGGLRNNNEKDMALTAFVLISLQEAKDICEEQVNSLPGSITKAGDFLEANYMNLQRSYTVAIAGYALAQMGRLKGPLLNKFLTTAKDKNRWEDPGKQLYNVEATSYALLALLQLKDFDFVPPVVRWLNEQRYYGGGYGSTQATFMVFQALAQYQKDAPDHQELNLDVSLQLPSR

B1: PspCN (cleaved, PspC residues 37-140, S. pneumoniae strain D39) (other)
chain: ATENEGSTQAATSSNMAKTEHRKAAKQVVDEYIEKMLREIQLDRRKHTQNVALNIKLSAIKTKYLRELNVLEEKSKDELPSEIKAKLDAAFEKFKKDTLKPGEK
inhibition of haemolysis of PNH-like erythrocytes by acidified normal human serum, IC50 [1]: 28 nM
rate of decay acceleration of C3b.Bb (SPR-based assay) [2]: ~10 fold
binding result [3]: no binding
binding result [4]: no binding
binding result [5]: no binding

B2: sPspCN (N-terminally hexaHis-SUMO-tagged PspC residues 37-140, S. pneumoniae strain D39) (other)
chain: ATENEGSTQAATSSNMAKTEHRKAAKQVVDEYIEKMLREIQLDRRKHTQNVALNIKLSAIKTKYLRELNVLEEKSKDELPSEIKAKLDAAFEKFKKDTLKPGEK
notes: not shown: N-terminal hexaHis-SUMO tag from the pE-SUMOpro Kan vector
binding result [6]: no binding
Kd [7]: 1 nM and 2 nM
binding result [8]: no binding
binding result [9]: no binding (tested: 50 nM (from the legend))
Kd [10]: ~0.05 pM
Kd [11]: 0.045 pM
Kd [12]: 0.053 pM
Kd [13]: 1.3 nM
Kd [14]: 0.012 nM
Kd [15]: 26 nM
